Measurements published in PMC10371147.

Columns and labels:
[1] = molecular target: mTmc1 tagged with mRuby3 (mTmc1-mRuby3) (mouse) (UniProt Q8R4P5)
[2] = molecular target: mTmc1 tagged with mRuby3 (mTmc1-mRuby3) (mouse) (UniProt Q8R4P5); test: FRET or BRET; acceptor photobleaching in living N2A cells co-transfected with mPz1-mClover3 (donor) and mTmc1-mRuby3 (acceptor), Tyrode's solution pH 7.4, region of the surface membrane

Chain of mTmc1 tagged with mRuby3 (mTmc1-mRuby3) (mouse) (Q8R4P5 whole entry): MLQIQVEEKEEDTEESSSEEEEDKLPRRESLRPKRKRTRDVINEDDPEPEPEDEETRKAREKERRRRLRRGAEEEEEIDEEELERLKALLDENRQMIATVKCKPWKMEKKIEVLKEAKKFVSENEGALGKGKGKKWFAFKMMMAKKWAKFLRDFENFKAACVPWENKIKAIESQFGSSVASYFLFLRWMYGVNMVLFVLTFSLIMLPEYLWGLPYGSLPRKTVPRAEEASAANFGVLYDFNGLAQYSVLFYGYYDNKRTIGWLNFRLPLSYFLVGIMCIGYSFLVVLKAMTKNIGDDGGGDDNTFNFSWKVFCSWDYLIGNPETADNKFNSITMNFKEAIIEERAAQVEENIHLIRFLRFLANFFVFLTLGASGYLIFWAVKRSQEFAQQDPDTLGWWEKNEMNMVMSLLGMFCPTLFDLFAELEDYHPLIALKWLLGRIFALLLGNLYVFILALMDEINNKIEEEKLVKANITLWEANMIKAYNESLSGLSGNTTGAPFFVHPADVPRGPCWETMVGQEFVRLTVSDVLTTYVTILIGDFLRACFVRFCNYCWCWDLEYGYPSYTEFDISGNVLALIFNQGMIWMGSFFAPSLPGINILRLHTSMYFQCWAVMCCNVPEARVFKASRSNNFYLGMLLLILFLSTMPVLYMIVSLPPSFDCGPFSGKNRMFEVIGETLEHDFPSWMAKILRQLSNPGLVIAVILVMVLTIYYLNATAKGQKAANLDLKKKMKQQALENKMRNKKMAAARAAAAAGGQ

block by dihydrostreptomycin (DHS) of the mechanically activated current in N2A cells co-transfected with Pz1 and Tmc1, against Pz1 alone [1]: 1000 fold
FRET efficiency (E) [2]: 0.1
Substance: mouse Pz1 tagged with mClover3 (mPz1-mClover3), E2JF22 1-2547
